Experimental data: the DeepSol protein solubility set

Experiment: soluble on expression in E. coli; label from the status in PepcDB or PDB records

Sequence	soluble on expression in E. coli
MASAQPLTALPAIPLPGDAGPVDELAAVIALLQTQPADSTGAATDLAARASALVGAPVTVLDERSGVLAGDPTRVAGQVAAPDGSVALGWGPAADDAERWRPLLTQACVWLSMIRRLDGAPAVEPESVAVREVVQQLLSVRDVDQVLTSIAERTLRLLDADICGVMLREGERVCMRACVGNRVAQTARLRMRRGQGLAGLVFDIGRPAKVDTYLEDRTISPDFMSLAEQEETRSALAVPLRLHGELIGVLEVWRRRPSTFTEHDEHRMVVLADIATVAIDNARLHDEQAASTVEAERARDELQQQVAMLNGSSRLQQKLLTTVIEGGGLPAVVHAVAIELGCEVGVFGPDGAMIATHTPGSTPASLPARLPVRARPATPGRWVRPVYADGDQVGQVVLIQGEASAELMDAVAGQVAMACSLALLRERAASRARAQAVDQVLWDLLQGPVQHRVAARSRAQQLGISLLGSLRVLHGQIENVEELAAEQGWDTSHTDKVRRGVLRAVRGVDEARRLPLTGMRGDLLVAVAADLDRASVKDLAAATCAAIHAEWPGLRLTWGVSRERANPMELPNALSEAETALAAARRLGGRNALLYEELGIVRLLLGSGNDPDLQTFIEEVTGPLIAYDRDNDGALIRTLRAFFDADCSQRVAAERLFVHHKTLRYRLERIRQLTGLDLSRHEDRMRADFALRLLQVNQTSDAIGD	not soluble
MASDENIGADGEQKPSRPFLRKGQGTARFRMPRNNKTSAGAPPTSELSSASSPSINVPRFSLSNALPNSARTVDSGISNEDETRPPTTASLPMDQPSLSSSPENRLNPAPSVAEEHGHSGQHAEEEEDNDTDEVSAMPSFVPDEPSTLVNSDHELSDDALKYKNAAAEFKAFERRMDSMRSASTITTSLATPSSCAPSNSSEPPTRSTPIMNDLGVGPNNHNWPSSMQELSGISLETPQARPLGSNRINQLVRSEAQTGISLLQHHERPTVTAPLRRNDMMNSSRQNPQNGNVQDENRPEHVYDQPIHVPGSSLDRQKLEIEIRRHRNLNIQLRDTIAHLDYAEESVHTTKRQLEEKISEVNNFKKELIEEFKKCKKGVEEEFEKKFEKIKEDYDELYEKLKRDQRDLERDQKILKKGTGERNKEFTETIATLRDKLRASETKNAQYRQDIRVRDEKLKKKDEEIEKLQKDGNRLKSTLQTLEKRVKQLRTEKERDDKEKEMFAKVAMNRKTSNPVPPVLNQSVPISITSNGPSRHPSSSSLTTFRKPSTSNRERGVSWADEPNEQSLEAVPQEFLMMPVKEMPGKFGKCTIYRDSLGETSKVTDTIANGLLFEYSNGDLRWVNRQNAVNIYISAVDKTVRIDLPTYNISIIHTFQRQVEVLRPGNNITLISIKRREVRTDLIYQNGMYKTEIFNRDGRYVTKDFSNQEVSRKYNPGTHTYRDNQCRYVLVTDYNDFELVEPEFRLRWYQGDPTGLNNQYILKIIGRPECSEKTLRLEVNLSTCEGTLETAEMIGDKRRKTTLFQWKK	not soluble
MASDYEAVNTNPYGVSDGELGPLKYGARFMNMQQRVIPIGSPSLTTGPGNDLQNTDLISSGNYIGYFGNNNNWGFNNEANWNFTDSRMNYAYQNFYSQIFLPWNEIYEIAKDSDSPSEQAILEIANIVRNIAWLRATDVFGPIAYNSAGDGSIAPKFDSQEVVYRSMLADLSKSVELLNTISYSVMAQYDLIYNGNVQNWVKLANSLMLRIVVRVHFIDETLAKEYITKALDPKNGGVIEDISSEAKIKSSDKMPLLNSMLASVNEYNETRMGATIWGYLDGYKDPRLSAYFTEGTYGSGSWAQTGYFPVAPTNSKSKSETSYSAKFASRPKVDSNSPLYWFRASETYFLKAEAALYNLIGGDPKTFYEQGINISFQEQGVSGVATYLSGTGKPTGLTGSNYKYGTYNHDLSIGNTSPKWDDYTGNLSKQEEQLQKIITQKYLALYPNAVEAWTEYRRTGFPYLMKPMDEAAPGRIGASIEDCRVPERFRFAPTAYNSNPNMAEIPTLLGGGDIGATKLWWVRSNRPKQPNQ	soluble
MASEVRIKLLLECTECKRRNYATEKNKRNTPNKLELRKYCPWCRKHTVHREVKI	soluble
MASGIRCFRLLHPAFRSYHAALTRPVSEVSMKTVSGRQHGHRQYSAYPAVPVRHFATKKAKAKGKGQPQARVTVNRALVEDIISLEEVDEDMKSVVEALKDNFNKTLNIRTAPGSLDHITVVTADGKVALNQIGQISMKSPQVILVNMASFPECTAAAIKAIRESGMNLNPEVEGTLIRVPIPKVTREHREMLVKLAKQNTNKAKENLRKVRTNAMNKLKKSKDKTSEDTIRLIEKQISQMADDTVAELDQHLAAKTKELLG	soluble
MASIWVGHRGTVRDYPDFSPSVDAEAIQKAIRGIGTDEKMLISILTERSNAQRQLIVKEYQAAYGKELKDDLKGDLSGHFEHLMVALVTPPAVFDAKQLKKSMKGAGTNEDALIEILTTRTSRQMKDISQAYYTVYKKSLGDDISSETSGDFRKALLTLADGRRDESLKVDEHLAKQDAQILYKAGENRWGTDEDKFTEILCLRSFPQLKLTFDEYRNISQKDIVDSIKGELSGHFEDLLLAIVNCVRNTPAFLAERLHRALKGIGTDEFTLNRIMVSRSEIDLLDIRTEFKKHYGYSLYSAIKSDTSGDYEITLLKICGGDD	soluble
MASKHAAKTVDPKDLSPAWKVLQMKLNEEKAEKEKAAKAEKEANPEGSDDGFTKVQTKKQKQKMNRKRRAQEALAAASEVKRVHHDIPVVIEDSERGELTKVIAIDCEYVGAGMGGTTDILARISIVNELGKIVYDKFVKPTEKVTDFRTAVSGIRPENMIKAIPFDRAQTEVSKLIDGRIVIGHAVHNDFRVLKLNHIRKLTRDTAKCTILKNMANHHGTPSLKKLAKEVLGIEIQRGEHDSITDARVALRLYEAVKKQWEAEIKRYR	not soluble
MASLAKNLKNVTPNVRRAVVTWDKAERIQRNEEIFKNSESVVHRLPEHYKTRYWETILSDKTPVHYRPPTSRFAHDSFKNVEIELEENPIIGIRTPEGDDGLWGGERVVKGWIESAPYTKKKILPRYWVPKLFFPALKNVVLYSEILDKYIKVTVTERAMRLIDEHFGLDYYILESKEIDLDSKFANSLKREMLLTLTTESYYEENDEKKAYIKEKYADFVIPEREAEWIGLELNEAARKQQDMEDSTAPEPLKYKFEQSLLERLRDGTDEISQELENPEAPMKTESKFGDKMFGKYLNPIGKKLRSATN	not soluble
MASSAQSGGSSGGPAVPTVQRGIIKMVLSGCAIIVRGQPRGGPPPERQINLSNIRAGNLARRAAATQPDAKDTPDEPWAFPAREFLRKKLIGKEVCFTIENKTPQGREYGMIYLGKDTNGENIAESLVAEGLATRREGMRANNPEQNRLSECEEQAKAAKKGMWSEGNGSHTIRDLKYTIENPRHFVDSHHQKPVNAIIEHVRDGSVVRALLLPDYYLVTVMLSGIKCPTFRREADGSETPEPFAAEAKFFTESRLLQRDVQIILESCHNQNILGTILHPNGNITELLLKEGFARCVDWSIAVYTRGAEKLRAAERVAKERRLRIWRDYVAPTANLDQKDKQFVAKVMQVLNADAIVVKLNSGDYKTIHLSSIRPPRLEGENTQDKNKKLRPLYDIPYMFEAREFLRKKLIGKKVNVTVDYIRPASPATETVPAFSERTCATVTIGGINIAEALVSKGLATVIRYRQDDDQRSSHYDELLAAEARAIKNGKGLHSKKEVPIHRVADISGDTQKAKQFLPFLQRAGRSEAVVEYVFSGSRLKLYLPKETCLITFLLAGIECPRGARNLPGLVQEGEPFSEEATLFTKELVLQREVEVEVESMDKAGNFIGWLHIDGANLSVLLVEHALSKVHFTAERSSYYKSLLSAEEAAKQKKEKVWAHYEEQPVEEVMPVLEEKERSASYKPVFVTEITDDLHFYVQDVETGTQLEKLMENMRNDIASHPPVEGSYAPRRGEFCIAKFVDGEWYRARVEKVESPAKIHVFYIDYGNREVLPSTRLGTLSPAFSTRVLPAQATEYAFAFIQVPQDDDARTDAVDSVVRDIQNTQCLLNVEHLSAGCPHVTLQFADSKGDVGLGLVKEGLVMVEVRKEKQFQKVITEYLNAQESAKSARLNLWRYGDFRADDADEFGYSR	soluble
MASSTSLAIVLHQSSNHDELFMKQTLQFSETLKDLKNLRKQLYSAAEYFETSYGKAEHKETVIETLKEYAAKAVVNTVDHLGSVSDKFNSFLSDNSTHFSTTHLRLSSLEQRMRLCRDYMGKSGTHQHLLLFQYPRHHKRYFFPQQGRGTSFSAGDDSHRFTSAVRSTILENLPNTARKANKTGSFSFAPIVHNNINNRTPNKRSNSPMRFPLLRSGSLLKRSSSPSQPKKPPLALPEPQRAISVSRNTEIVEIKQSSSRKGKKILMFKALMSMSKSRN	soluble
MASTGLRVDLYEEHGRVGMPEHCTGIVSERTVNTIGREARETIIDSYDSLEIRFRGETLAVLDVGTVYRLDRVRLEELLLESLMSLGGRAQLGKRVHSVGIEGSVKAGGSEARYDAVILADGAHGELHRMLDLGYRGDYYYGLNILVPGKRESTILVDFILDRGLAFTWDVPTVGSVSVAGAMGTLAGVKRFFEVLKPRAFKVYGGRIPAGPPAERLRRGRVYVVGDAGGLVKPLSGGGLYPNAKAAKLAASLIKRGLDVGEALEKSLSIVSHELRAQHAVARLVYGTRVLETISRAVGGAPLRLRLDYDTHHQLVISTLSQVGALSSQRLAAAALRGGGLEAPLSLVKVLYHSSASAYKRLASGRLPGVLEHHHHHH	not soluble
MASVPENQAPKAIFTFSPEDPVTDENVVFNASNSIDEDGTIAYYVWDFGDGYEGTSTTPTITYKYKNPGTYKVKLIVTDNQGASSSFTATIKVTSATGDNSKFNFEDGTLGGFTTSGTNATGVVVNTTEKAFKGERGLKWTVTSEGEGTAELKLDGGTIVVPGTTMTFRIWIPSGAPIAAIQPYIMPHTPDWSEVLWNSTWKGYTMVKTDDWNEITLTLPEDVDPTWPQQMGIQVQTIDEGEFTIYVDAIDWLEHHHHHH	soluble
MATAAVTDDIEEGARKAPALIRYLAEGEYVTRRYVSQGAEMNTGEYADYECVVRDGMPIRDHFTLDVHGFALGRHRSAVADFHDKPTVDALYLDEVEELVTRLCGAARTAAQGWMIRTSADLTERAKQKVQGYQHSGGIQPPAGEAHVDYNEVTGRRAAARVYADRFPDGPGYKRYICFSLWRTFSPGPQDWPLAVCDGRTVRDEETASNTLFVVDEFPVGDALTAPVEGEDQMIAATIFRHRDRHRWWYFSNMAADDVLLFKFQDSDHSVTWRCPHTAFHDTSLPDAKTRSSIEVRCIAFFELEHHHHHH	soluble
MATCGRRDDILDLLKSLEQQTYKNFELIVVDQNDTPISDLFDEYKDKFSINYIYTPIKGLSRARNAGLKVADGDFIAFPDDDCIYEKNVLESILETFNSNKDVHFISTNTTNVEGTGSLIHAPNTDIILNNKYGFMGPSFTLFFTKQFVQDVGTFDEDLGVGSGTIYGAGEETDFVLRGMKQNYTGLFRKDLFVYHPVKEEIINEQSLKRAISYAGGFGRIIRLHYGFPYFLRAVAAATFRMTQNISNDKRKFHANRLRGIVRGYLK	not soluble
MATFASRELTEEDDSHPGPSEKSEKDVLGIVRTGPKKLITGESSSLFKLKNELLKRKDRLNSEVHIKHTETHVSGKSNLLSTKKEEKERQARKDESRKLRIEKNERAVRREEDEARLMAAQQKLREKSELYDRMQEGNVVLANLDDTPVEFLVDFGTKKRRIEEERAWERERYREQEEAAPIGFGRAPIPEHYHHSEEQRVYGTSHMRLSLNENKRKEEIEKLLEMSKKTDMDKAKKKETEKHRDILRREKLNKLRAKHGLELLPEIVEPVAVPASQIDLNSIPLPGQKETPEERHARLMKSDREWDRGKGHYTTWIEKQRDERDDEFRPPDSYFR	soluble
MATKLQDGNTPCLAATPSEPRPTVLVFDSGVGGLSVYDEIRHLLPDLHYIYAFDNVAFPYGEKSEAFIVERVVAIVTAVQERYPLALAVVACNTASTVSLPALREKFDFPVVGVVPAIKPAARLTANGIVGLLATRGTVKRSYTHELIARFANECQIEMLGSAEMVELAEAKLHGEDVSLDALKRILRPWLRMKEPPDTVVLGCTHFPLLQEELLQVLPEGTRLVDSGAAIARRTAWLLEHEAPDAKSADANIAFCMAMTPGAEQLLPVLQRYGFETLEKLAVLG	soluble
